Laboratory results reported in paper PMC9391581, “Mutated KLF4(K409Q) in meningioma binds STRs and activates FGF3 gene expression”.

Legend:
Conditions in all cases: protein: recombinant; tags: MBP; label: 32P 5' end
MBP-KLF4 full length [1] = target: T1, MBP-KLF4 full length (human, UniProt O43474-1 1-479); assay: EMSA; same strong binding as TRH-122; EMSA: 10 mM Tris-HCl pH 7.5, 53 mM NaCl, 1 mM DTT, 0.01% NP40, 5% glycerol, protein inhibitors, RT 30 min; footprinting: 110 ng to 3 ug protein, RT 30 min, 0.3
T1 sequence (O43474 other isoform, or with tags, fused parts or gaps): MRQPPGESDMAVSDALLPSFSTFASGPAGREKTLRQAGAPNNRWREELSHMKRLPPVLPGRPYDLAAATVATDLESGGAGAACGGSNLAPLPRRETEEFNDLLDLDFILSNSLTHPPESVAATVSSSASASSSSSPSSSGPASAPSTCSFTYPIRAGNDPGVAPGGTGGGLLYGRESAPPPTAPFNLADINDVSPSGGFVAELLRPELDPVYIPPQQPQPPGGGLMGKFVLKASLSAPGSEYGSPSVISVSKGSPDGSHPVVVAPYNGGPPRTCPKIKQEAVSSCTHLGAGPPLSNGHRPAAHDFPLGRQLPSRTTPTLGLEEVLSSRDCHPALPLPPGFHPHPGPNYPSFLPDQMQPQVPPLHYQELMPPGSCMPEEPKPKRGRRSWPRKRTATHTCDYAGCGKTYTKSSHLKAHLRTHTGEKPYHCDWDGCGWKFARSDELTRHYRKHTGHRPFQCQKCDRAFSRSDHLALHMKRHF

MBP-KLF4 DBD [2] = target: T2, MBP-KLF4 DBD (human, UniProt O43474-1 375-479); assay: as above
T2 sequence (O43474 409-513): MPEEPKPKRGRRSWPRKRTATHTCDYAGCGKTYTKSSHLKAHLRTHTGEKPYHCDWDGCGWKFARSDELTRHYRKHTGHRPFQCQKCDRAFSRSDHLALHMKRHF

MBP-KLF4 full length [3] = target: T1, MBP-KLF4 full length; assay: EMSA; EMSA: 10 mM Tris-HCl pH 7.5, 53 mM NaCl, 1 mM DTT, 0.01% NP40, 5% glycerol, protein inhibitors, RT 30 min; footprinting: 110 ng to 3 ug protein, RT 30 min, 0.3
[4] = target: T3, MBP-KLF4 K409Q full length (human, UniProt O43474-1 1-479, K409Q); assay: as above
T3 sequence (O43474 other isoform, or with tags, fused parts or gaps K409Q | K409Q K409Q): as the sequence (O43474 other isoform, or with tags, fused parts or gaps) above, with K409Q counted along it

MBP-KLF4 DBD [5] = target: T2, MBP-KLF4 DBD; assay: as above
MBP-KLF4 K409Q DBD = MBP-KLF4 K409Q DBD (human, UniProt O43474-1 375-479, K409Q); assay: EMSA; stronger than FGF3-201; EMSA: 10 mM Tris-HCl pH 7.5, 53 mM NaCl, 1 mM DTT, 0.01% NP40, 5% glycerol, protein inhibitors, RT 30 min; footprinting: 110 ng to 3 ug protein, RT 30 min, 0.3
MBP-KLF4 K409Q DBD, sequence (O43474 409-513 K443Q): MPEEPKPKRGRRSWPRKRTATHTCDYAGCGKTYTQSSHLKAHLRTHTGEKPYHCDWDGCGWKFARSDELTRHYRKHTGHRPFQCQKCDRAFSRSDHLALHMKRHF

[6] = target: T3, MBP-KLF4 K409Q full length; assay: as above

B1: TRH-122M (dsDNA)
DNA 1: GAGCAGGCGGGCGGGGCCCCGC
DNA 2: GCGGGGCCCCGCCCGCCTGCTC
Q: What does the source list for B1?
A: binding result (MBP-KLF4 full length [1]): binds; binding result (MBP-KLF4 DBD [2]): binds

B2: TRH-122 (dsDNA)
DNA 1: GAGCAGGCGGGCGGGGTCCCGC
DNA 2: GCGGGACCCCGCCCGCCTGCTC
Q: Does B2 bind (MBP-KLF4 full length [3])?
A: binds

Q: Does B2 bind [4]?
A: binds

Q: Does B2 bind (MBP-KLF4 DBD [5])?
A: binds

B3: FGF3-201M (dsDNA)
DNA 1: CCTTTAATGGGTGTGTGTCAGC
DNA 2: GCTGACACACACCCATTAAAGG
Q: Does B3 bind (MBP-KLF4 K409Q DBD)?
A: binds

Q: Does B3 bind [6]?
A: binds
